Laboratory results reported in the supplement of paper PMC11246515.
± gives the standard deviation of the averaged measurements.

Experiment: total protein half-life in vivo (active degradation + dilution); higher = more stable protein
[1] = E. coli NCM3722 delta-clpP delta-lon delta-hslV, growth: N-lim chemostat, doubling time 6 h
[2] = E. coli NCM3722 delta-clpP, growth: N-lim chemostat, doubling time 6 h
[3] = E. coli NCM3722 delta-hslV, growth: N-lim chemostat, doubling time 6 h
[4] = E. coli NCM3722 delta-lon, growth: N-lim chemostat, doubling time 6 h
[5] = E. coli NCM3722 delta-smpB, growth: N-lim chemostat, doubling time 6 h
[6] = wild type E. coli NCM3722, growth: C-lim chemostat, doubling time 3 h
[7] = wild type E. coli NCM3722, growth: C-lim chemostat, doubling time 6 h
[8] = wild type E. coli NCM3722, growth: C-lim chemostat, doubling time 12 h
[9] = wild type E. coli NCM3722, growth: N-lim chemostat, doubling time 6 h
[10] = wild type E. coli NCM3722, growth: N-lim chemostat, doubling time 12 h
[11] = wild type E. coli NCM3722, growth: P-lim chemostat, doubling time 6 h
[12] = wild type E. coli NCM3722, growth: P-lim chemostat, doubling time 12 h

Row | Sequence | total protein half-life in vivo [1] [h] | total protein half-life in vivo [2] [h] | total protein half-life in vivo [3] [h] | total protein half-life in vivo [4] [h] | total protein half-life in vivo [5] [h] | total protein half-life in vivo [6] [h] | total protein half-life in vivo [7] [h] | total protein half-life in vivo [8] [h] | total protein half-life in vivo [9] [h] | total protein half-life in vivo [10] [h] | total protein half-life in vivo [11] [h] | total protein half-life in vivo [12] [h]
1 | MTLLGTALRPAATRVMLLGSGELGKEVAIECQRLGVEVIAVDRYADAPAMHVAHRSHVINMLDGDALRRVVELEKPHYIVPEIEAIATDMLIQLEEEGLNVVPCARATKLTMNREGIRRLAAEELQLPTSTYRFADSESLFREAVADIGYPCIVKPVMSSSGKGQTFIRSAEQLAQAWKYAQQGGRAGAGRVIVEGVVKFDFEITLLTVSAVDGVHFCAPVGHRQEDGDYRESWQPQQMSPLALERAQEIARKVVLALGGYGLFGVELFVCGDEVIFSEVSPRPHDTGMVTLISQDLSEFALHVRAFLGLPVGGIRQYGPAASAVILPQLTSQNVTFDNVQNAVGADLQIRLFGKPEIDGSRRLGVALATAESVVDAIERAKHAAGQVKVQG | 5.17 ± 0.51 | 4.76 ± 0.66 | 4.361 ± 0.017 | 4.5 ± 0.32 | 4.11 ± 0.3 | 3.033 ± 0.014 | 5.96 ± 0.31 | 10.2 ± 0.59 | 4.28 ± 0.2 | 6.95 ± 0.21 | 6.14 ± 0.1 | 10.1 ± 0.19
2 | MYEFDWSSIVPSLPYLLDGLVITLKITVTAVVIGILWGTMLAVMRLSSFAPVAWFAKAYVNVFRSIPLVMVLLWFYLIVPGFLQNVLGLSPKNDIRLISAMVAFSMFEAAYYSEIIRAGIQSISRGQSSAALALGMTHWQSMKLIILPQAFRAMVPLLLTQGIVLFQDTSLVYVLSLADFFRTASTIGERDGTQVEMILFAGFVYFVISLSASLLVSYLKRRTA [P0AER5] | 7.04 | 5.18 | 6.35 | 5.47 | 5.15 ± 0.1 | – | 6.05 ± 0.51 | 12.6 ± 1.8 | 5.68 ± 0.1 | 9.5 ± 4.4 | 6.36 ± 0.33 | 11.4 ± 0.52
3 | MSTTHNVPQGDLVLRTLAMPADTNANGDIFGGWLMSQMDIGGAILAKEIAHGRVVTVRVEGMTFLRPVAVGDVVCCYARCVQKGTTSVSINIEVWVKKVASEPIGQRYKATEALFKYVAVDPEGKPRALPVE [P0A8Z0] | 5.03 ± 0.4 | 5.16 ± 0.9 | 5.24 ± 0.38 | 5.86 ± 0.43 | 5 ± 0.31 | 2.93 ± 0.13 | 5.72 ± 0.64 | 11.1 ± 0.23 | 5.6 ± 0.096 | 10.1 ± 0.37 | 5.8 ± 0.5 | 13.3 ± 0.14
4 | MMSESNKQQAVNKLTEIVANFTAMISTRMPDDVVDKLKQLKDAETSSMGKIIYHTMFDNMQKAIDLNRPACQDTGEIMFFVKVGSRFPLLGELQSILKQAVEEATVKAPLRHNAVEIFDEVNTGKNTGSGVPWVTWDIIPDNDDAEIEVYMAGGGCTLPGRSKVLMPSEGYEGVVKFVFENISTLAVNACPPVLVGVGIATSVETAAVLSRKAILRPIGSRHPNPKAAELELRLEEGLNRLGIGPQGLTGNSSVMGVHIESAARHPSTIGVAVSTGCWAHRRGTLLVHADLTFENLSHTRSAL | – | 6.19 | 6.18 | 6.4 | – | – | – | – | 6.42 | – | 5.88 | –
5 | MSFLLPIQLFKILADETRLGIVLLLSELGELCVCDLCTALDQSQPKISRHLALLRESGLLLDRKQGKWVHYRLSPHIPAWAAKIIDEAWRCEQEKVQAIVRNLARQNCSGDSKNICS | 6.03 | 5.66 | – | 5.43 | 5.01 ± 0.46 | 2.68 | – | – | 4.89 | 9.59 | 5.5 | 9.37
6 | MSFNTIIDWNSCTAEQQRQLLMRPAISASESITRTVNDILDNVKARGDEALREYSAKFDKTTVTALKVSAEEIAAASERLSDELKQAMAVAVKNIETFHTAQKLPPVDVETQPGVRCQQVTRPVASVGLYIPGGSAPLFSTVLMLATPASIAGCKKVVLCSPPPIADEILYAAQLCGVQDVFNVGGAQAIAALAFGTESVPKVDKIFGPGNAFVTEAKRQVSQRLDGAAIDMPAGPSEVLVIADSGATPDFVASDLLSQAEHGPDSQVILLTPAADMARRVAEAVERQLAELPRAETARQALNASRLIVTKDLAQCVEISNQYGPEHLIIQTRNARELVDSITSAGSVFLGDWSPESAGDYASGTNHVLPTYGYTATCSSLGLADFQKRMTVQELSKEGFSALASTIETLAAAERLTAHKNAVTLRVNALKEQA | 4.6 ± 0.29 | 4.43 ± 0.94 | 3.96 ± 0.073 | 4.89 ± 0.47 | 4.3 ± 0.25 | 3.3 ± 0.18 | 5.97 ± 0.23 | 10.8 ± 1.1 | 4.23 ± 0.25 | 6.67 ± 0.38 | 5.595 ± 0.053 | 11.9 ± 0.35
7 | MKSGRFIGVMSGTSLDGVDVVLATIDEHRVAQLASLSWPIPVSLKQAVLDICQGQQLTLSQFGQLDTQLGQLFADAVNALLKEQNLQARDIVAIGCHGQTVWHEPTGVAPHTLQIGDNNQIVARTGITVVGDFRRRDIALGGQGAPLVPAFHHALLAHPTERRMVLNIGGIANLSLLIPGQPVGGYDTGPGNMLMDAWIWRQAGKPYDKDAEWARAGKVILPLLQNMLSDPYFSQPAPKSTGREYFNYGWLERHLRHFPGVDPRDVQATLAELTAVTISEQVLLSGGCERLMVCGGGSRNPLLMARLAALLPGTEVTTTDAVGISGDDMEALAFAWLAWRTLAGLPGNLPSVTGASQETVLGAIFPANP | 4.58 ± 0.37 | 4.32 ± 0.2 | 3.98 ± 0.065 | 5.78 ± 1.9 | 3.88 ± 0.11 | 3.34 ± 0.54 | 5.7 ± 0.078 | 9.74 ± 0.51 | 4.03 ± 0.26 | 7.18 ± 0.17 | 5.87 ± 0.47 | 12.9 ± 0.95
